Measured values taken from article PMC5988928, “An alkaline and surfactant-tolerant lipase from Trichoderma lentiforme ACCC30425 with high application potential in the detergent industry” (AMB Express, 2018).

Experiments:
Assay in all cases: purified protein
Assay type in all cases: biochemical, Trichoderma sp.
Conditions in all cases: pH 9.5, 50 °C, 10 min, Tris-HCl
purified protein [1] = substrate: CCCC(=O)Oc1ccc([N+](=O)[O-])cc1
purified protein [2] = substrate: CCCCCCCC(=O)Oc1ccc([N+](=O)[O-])cc1
purified protein [3] = substrate: CCCCCCCCCC(=O)Oc1ccc([N+](=O)[O-])cc1
purified protein [4] = substrate: CCCCCCCCCCCC(=O)Oc1ccc([N+](=O)[O-])cc1
purified protein [5] = substrate: CCCCCCCCCCCCCC(=O)Oc1ccc([N+](=O)[O-])cc1
purified protein [6] = substrate: CCCCCCCCCCCCCCCC(=O)Oc1ccc([N+](=O)[O-])cc1

B1: TlLipA (Trichoderma sp.) (protein)
chain: AQGQVNVTIPSGNIMGSSVEDVEFFKGIPFADPPIGELRFKPPQTLSTHLGDFDATKKAKLCSQGPVFTVSSNPQVAPFALKAERESFGNPVPPENESEDCLTVTIHRPAGTEAGDDLPVLFYIFGGGFVIGGTSAAINDPTVLVQTGIDLGKPFIFAAVNYRVGGWGFMPGAEILRDGSANAGLLDQRKGLEWVADNIAAFGGDPSKVTIWGQSSGSISVFEQLVLYDGDNTYNGNPLFRGAIMNSGSVTPVDPVDSAKPQALYDHVVRVANCEGDDSLDCLRRLPNDHFAAAANSIPGLISYESLALSYLPRPDGEVLTASPHVLAREGKFPAVPMILASQEDEGTLFSFFQGDMGTTDIITDYLNSLYFTNTDRSLVKSFVETYSERLEDGSPYRTGDSKDLFYYPGKKRIASILGDIVFTLVRRWTLETIAEVSPETALWSSFASYNYKPLDIFGLGTKHGSDTEVFFARNNSDFPSITGRTYYINFVYNGDPNEGLDVNVTWLGWKEDRQLLWYNATENGYLADNFRNGSYNFIKEHIDSLIF
notes: secreted from Pichia pastoris GS115 (pPIC9, alpha-factor signal), no tag told; N-terminus AQGQVNVTIP from primer
Km (purified protein [1]): 400 ± 70 µM | Vmax (purified protein [1]): 12.2 µmol/min/mg | kcat (purified protein [1]): 12.2 ± 0.8 s⁻¹ | kcat/Km (purified protein [1]): 30700 M⁻¹ s⁻¹ | Km (purified protein [2]): 670 ± 230 µM | Vmax (purified protein [2]): 27.3 µmol/min/mg | kcat (purified protein [2]): 27.4 ± 4.4 s⁻¹ | kcat/Km (purified protein [2]): 41000 M⁻¹ s⁻¹ | Km (purified protein [3]): 350 ± 70 µM | Vmax (purified protein [3]): 12.5 µmol/min/mg | kcat (purified protein [3]): 12.5 ± 0.7 s⁻¹ | kcat/Km (purified protein [3]): 35800 M⁻¹ s⁻¹ | Km (purified protein [4]): 1590 ± 420 µM | Vmax (purified protein [4]): 16.8 µmol/min/mg | kcat (purified protein [4]): 16.8 ± 2.4 s⁻¹ | kcat/Km (purified protein [4]): 10600 M⁻¹ s⁻¹ | Km (purified protein [5]): 3290 ± 1210 µM | Vmax (purified protein [5]): 4.3 µmol/min/mg | kcat (purified protein [5]): 4.3 ± 1 s⁻¹ | kcat/Km (purified protein [5]): 1320 M⁻¹ s⁻¹ | Km (purified protein [6]): 4220 ± 1280 µM | Vmax (purified protein [6]): 4.8 µmol/min/mg | kcat (purified protein [6]): 4.8 ± 1 s⁻¹ | kcat/Km (purified protein [6]): 1140 M⁻¹ s⁻¹
